Experiments:
[1] = molecular target: T1, cDPGS (Mf-cDPGS), cyclic 2,3-diphosphoglycerate synthetase (Methanothermus fervidus, UniProt O93732); assay: HPLC-MS detection of product; type: biochemical; conditions: 50 mM ATP, 250 mM 2,3-DPG, 50 mM MgCl2, 300 mM KCl, 25 mM Tris-HCl pH 8.0, 65 C, 60 min
T1 construct: gene cpgS; full length, 460 residues, N-terminal His6 tag (pLATE51, E. coli BL21(DE3), codon-optimised gene), homodimer ~100 kDa; apo structure solved from selenomethionine protein

[2] = molecular target: the molecule itself; assay: SEC; calibrated Superdex 200 HiLoad 16/60, 20 mM Tris-HCl pH 7.5, 300 mM KCl, 1.0 mL/min, after Ni2+ affinity
[3] = molecular target: the molecule itself; assay: crystal structure; ligand-free (apo) selenomethionine protein, space group I222, one protomer in the asymmetric unit, 1.7 Å, SAD; oligomeric state analysed with PISA

O=C(O)[C@H]1COP(=O)(O)OP(=O)(O)O1 [cDPG]
HPLC-MS detection of product [1]: The direct production of cDPG was monitored by HPLC–MS

B1: cyclic 2,3-diphosphoglycerate synthetase from Methanothermus fervidus, N-terminally His-tagged (enzyme, UniProt O93732 1-460, looked up)
chain: MGETKKMICLVDGEHYFPVVKDSIEILDDLEHIDVVAVVFIGGTEKLQIEDPKEYSEKLGKPVFFGPDPKKIPYDVIKKCVKKYNADIVMDLSDEPVVDYTKRFRIASIVLKEGAVYQGADFKFEPLTEYDVLEKPSIKIIGTGKRIGKTAVSAYAARVIHKHKYNPCVVAMGRGGPREPEIVEGNKIEITAEYLLEQADKGVHAASDHWEDALMSRILTVGCRRCGGGMLGDTFITNVKRGAEIANKLDSDFVIMEGSGAAIPPVKTNRQIVTVGANQPMININNFFGPFRIGLADLVIITMCEEPMATTEKIKKVEKFIKEINPSANVIPTVFRPKPVGNVEGKKVLFATTAPKVVVGKLVNYLESKYGCDVVGVTPHLSNRPLLRRDLKKYINKADLMLTELKAAAVDVATRVAIEAGLDVVYCDNIPVVIDESYGNIDDAIIEVVEMAIDDFKNNR
notes: cyclic 2,3-diphosphoglycerate synthetase (cDPGS), Methanothermus fervidus; E. coli codon-optimised gene in pLATE51; 460 protein residues in the structures, which hold the entire polypeptide chain (N-terminal domain of 127 amino acids, C-terminal domain residues 136-460); No removal of the His tag is told; also called cDPGS; Mf-cDPGS
stoichiometry N [2]: 2

B2: selenomethionine derivative of cyclic 2,3-diphosphoglycerate synthetase from Methanothermus fervidus (enzyme, UniProt O93732 1-460, looked up)
chain: MGETKKMICLVDGEHYFPVVKDSIEILDDLEHIDVVAVVFIGGTEKLQIEDPKEYSEKLGKPVFFGPDPKKIPYDVIKKCVKKYNADIVMDLSDEPVVDYTKRFRIASIVLKEGAVYQGADFKFEPLTEYDVLEKPSIKIIGTGKRIGKTAVSAYAARVIHKHKYNPCVVAMGRGGPREPEIVEGNKIEITAEYLLEQADKGVHAASDHWEDALMSRILTVGCRRCGGGMLGDTFITNVKRGAEIANKLDSDFVIMEGSGAAIPPVKTNRQIVTVGANQPMININNFFGPFRIGLADLVIITMCEEPMATTEKIKKVEKFIKEINPSANVIPTVFRPKPVGNVEGKKVLFATTAPKVVVGKLVNYLESKYGCDVVGVTPHLSNRPLLRRDLKKYINKADLMLTELKAAAVDVATRVAIEAGLDVVYCDNIPVVIDESYGNIDDAIIEVVEMAIDDFKNNR
modifications: selenomethionine in place of methionine
notes: cyclic 2,3-diphosphoglycerate synthetase (cDPGS), Methanothermus fervidus; same construct as m1, made with selenomethionine; 460 protein residues, the entire polypeptide chain seen in the structure; Used for the ligand-free structure (SAD phasing); One protomer in the asymmetric unit; the dimer lies on a crystallographic dyad; also called SeMet cDPGS; apo-cDPGS; source: E. coli, PASM-5052 auto …
binding result [3]: binds

Source: article PMC10690619 (Frontiers in Microbiology, 2023)
